According to the supplement of paper PMC9112550, “Optimization of the antimicrobial peptide Bac7 by deep mutational scanning” (BMC Biology, 2022):

Tested on: Escherichia coli TOP10
Assay: shrunken log2 fold change of peptide-encoding DNA abundance (4.5 h post-induction vs induction); higher = less antimicrobial activity (less host growth inhibition)
Details: time post-induction: 4.5 h; library: site-saturation at positions 5, 18, 19, 20
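Note: peptides expressed intracellularly from a pBAD plasmid library in pooled LB shake-flask culture, induced with 0.3% L-arabinose, DNA abundance read by NGS, three biological replicates, DESeq2 with apeglm shrinkage.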

Sequence	shrunken log2 fold change
RRIRLRPPRLPRPRPRPQILPRP	-0.172
RRIRKRPPRLPRPRPRPAADPRP	0.941
RRIRMRPPRLPRPRPRPWWMPRP	0.0885
RRIRWRPPRLPRPRPRPSFTPRP	-0.397
RRIRYRPPRLPRPRPRPSKEPRP	-0.0167
RRIRVRPPRLPRPRPRPKHWPRP	0.151
RRIRSRPPRLPRPRPRPLQRPRP	0.0641
RRIRMRPPRLPRPRPRPYIEPRP	-0.201
RRIRARPPRLPRPRPRPVTMPRP	0.102
RRIRYRPPRLPRPRPRPWVFPRP	-0.0309
RRIRDRPPRLPRPRPRPYLDPRP	-0.0026
RRIRYRPPRLPRPRPRPGTTPRP	-0.0671
RRIRYRPPRLPRPRPRPPKFPRP	-0.0892
RRIRIRPPRLPRPRPRPMNAPRP	-0.0262
RRIRRRPPRLPRPRPRPHARPRP	0.586
RRIRLRPPRLPRPRPRPEARPRP	0.142
RRIRSRPPRLPRPRPRPKKTPRP	-0.356
RRIRDRPPRLPRPRPRPGNSPRP	-0.0582
RRIRWRPPRLPRPRPRPEFLPRP	0.374
RRIRQRPPRLPRPRPRPRMHPRP	-0.0115
RRIRFRPPRLPRPRPRPKLTPRP	-0.069
RRIRCRPPRLPRPRPRPMMAPRP	0.184
RRIRGRPPRLPRPRPRPEPSPRP	1.47
RRIRHRPPRLPRPRPRPERCPRP	-0.078
RRIRNRPPRLPRPRPRPLRAPRP	0.672

Sequence	shrunken log2 fold change
RRIRERPPRLPRPRPRPHIGPRP	0.00581
RRIRQRPPRLPRPRPRPRPDPRP	0.191
RRIRDRPPRLPRPRPRPTHAPRP	0.148
RRIRHRPPRLPRPRPRPIRSPRP	-0.0062
RRIRWRPPRLPRPRPRPDFVPRP	0.0377
RRIRHRPPRLPRPRPRPGKDPRP	-0.0922
RRIRCRPPRLPRPRPRPCSTPRP	-0.245
RRIRNRPPRLPRPRPRPKDAPRP	0.0655
RRIRGRPPRLPRPRPRPAIGPRP	0.591
RRIRLRPPRLPRPRPRPSCQPRP	-0.256
RRIRQRPPRLPRPRPRPMQTPRP	-0.0319
RRIRPRPPRLPRPRPRPSDQPRP	0.029
RRIRNRPPRLPRPRPRPWILPRP	-0.146
RRIRVRPPRLPRPRPRPFVAPRP	-0.118
RRIRARPPRLPRPRPRPPRGPRP	0.833
RRIRIRPPRLPRPRPRPLNPPRP	-0.428
RRIRRRPPRLPRPRPRPWLYPRP	0.0161
RRIRLRPPRLPRPRPRPINRPRP	0.0141
RRIRLRPPRLPRPRPRPCCVPRP	0.0472
RRIRGRPPRLPRPRPRPNDYPRP	-0.0119
RRIRCRPPRLPRPRPRPRFCPRP	0.071
RRIRWRPPRLPRPRPRPCHMPRP	-0.0433
RRIRCRPPRLPRPRPRPVQSPRP	0.132
RRIRQRPPRLPRPRPRPVAIPRP	-0.367
RRIRIRPPRLPRPRPRPGQTPRP	0.0693

Sequence	shrunken log2 fold change
RRIRDRPPRLPRPRPRPTKRPRP	0.123
RRIRPRPPRLPRPRPRPAAHPRP	0.0385
RRIRRRPPRLPRPRPRPLKLPRP	-0.0808
RRIRTRPPRLPRPRPRPGCLPRP	0.172
RRIRRRPPRLPRPRPRPRHYPRP	0.279
RRIRDRPPRLPRPRPRPSISPRP	-0.0844
RRIRSRPPRLPRPRPRPMFPPRP	-0.22
RRIRDRPPRLPRPRPRPATFPRP	0.222
RRIRFRPPRLPRPRPRPVYNPRP	-1.27
RRIRQRPPRLPRPRPRPGIHPRP	0.0177
RRIRTRPPRLPRPRPRPYCLPRP	-0.999
RRIRHRPPRLPRPRPRPQNWPRP	0.0558
RRIRHRPPRLPRPRPRPKRIPRP	-0.0337
RRIRQRPPRLPRPRPRPRGCPRP	0.199
RRIRIRPPRLPRPRPRPVCCPRP	-0.0749
RRIRTRPPRLPRPRPRPSSFPRP	-0.284
RRIRRRPPRLPRPRPRPTRKPRP	0.498
RRIRNRPPRLPRPRPRPICKPRP	0.0454
RRIRYRPPRLPRPRPRPYKEPRP	0.043
RRIRIRPPRLPRPRPRPDVPPRP	-0.372
RRIRARPPRLPRPRPRPCSEPRP	0.244
RRIRQRPPRLPRPRPRPNTTPRP	0.15
RRIRHRPPRLPRPRPRPVERPRP	-0.00973
RRIRVRPPRLPRPRPRPQPTPRP	0.408
RRIRHRPPRLPRPRPRPHLKPRP	-0.124

Sequence	shrunken log2 fold change
RRIRHRPPRLPRPRPRPMPTPRP	0.0549
RRIRWRPPRLPRPRPRPNMKPRP	-0.0784
RRIRWRPPRLPRPRPRPKDQPRP	0.508
RRIRNRPPRLPRPRPRPANCPRP	-0.185
RRIRVRPPRLPRPRPRPAEHPRP	-0.086
RRIRDRPPRLPRPRPRPPIEPRP	-0.0618
RRIRHRPPRLPRPRPRPWTTPRP	0.00489
RRIRNRPPRLPRPRPRPQGAPRP	-0.149
RRIRKRPPRLPRPRPRPHTGPRP	-0.0786
RRIRERPPRLPRPRPRPRLAPRP	0.269
RRIRLRPPRLPRPRPRPTTAPRP	0.115
RRIRARPPRLPRPRPRPDMPPRP	0.0755
RRIRMRPPRLPRPRPRPNNVPRP	-0.0591
RRIRCRPPRLPRPRPRPIERPRP	0.0355
RRIRNRPPRLPRPRPRPVFVPRP	-0.123
RRIRRRPPRLPRPRPRPMCYPRP	-0.069
RRIRERPPRLPRPRPRPITIPRP	-0.0388
RRIRSRPPRLPRPRPRPVRDPRP	0.369
RRIRCRPPRLPRPRPRPETVPRP	0.448
RRIRTRPPRLPRPRPRPGKWPRP	-0.192
RRIRYRPPRLPRPRPRPHNMPRP	-0.17
RRIRFRPPRLPRPRPRPLEEPRP	-0.0138
RRIRYRPPRLPRPRPRPGQDPRP	-0.346
RRIRHRPPRLPRPRPRPWSKPRP	-0.301
RRIRMRPPRLPRPRPRPCPLPRP	-0.0594

Sequence	shrunken log2 fold change
RRIRPRPPRLPRPRPRPIGTPRP	-0.39
RRIRDRPPRLPRPRPRPNHTPRP	-0.0643
RRIRFRPPRLPRPRPRPTYSPRP	-0.209
RRIRWRPPRLPRPRPRPCLCPRP	-0.0914
RRIRHRPPRLPRPRPRPIRTPRP	-0.0747
RRIRSRPPRLPRPRPRPLGEPRP	0.175
RRIRVRPPRLPRPRPRPRKFPRP	0.0551
RRIRSRPPRLPRPRPRPEMIPRP	0.0158
RRIRGRPPRLPRPRPRPHFAPRP	0.628
RRIRFRPPRLPRPRPRPTIHPRP	0.865
RRIRVRPPRLPRPRPRPYQSPRP	-0.0308
RRIRSRPPRLPRPRPRPGNYPRP	-0.0556
RRIRHRPPRLPRPRPRPFGPPRP	-0.247
RRIRKRPPRLPRPRPRPKIYPRP	-0.0249
RRIRWRPPRLPRPRPRPPMWPRP	0.108
RRIRDRPPRLPRPRPRPHQCPRP	-0.0903
RRIRDRPPRLPRPRPRPEVPPRP	0.0916
RRIRYRPPRLPRPRPRPYMFPRP	-0.651
RRIRTRPPRLPRPRPRPCIHPRP	-0.11
RRIRARPPRLPRPRPRPVCLPRP	0.138
RRIRYRPPRLPRPRPRPARKPRP	-0.486
RRIRKRPPRLPRPRPRPHPIPRP	0.0828
RRIRQRPPRLPRPRPRPECCPRP	0.267
RRIRMRPPRLPRPRPRPHHQPRP	-0.526
RRIRNRPPRLPRPRPRPGPNPRP	0.0126

Sequence	shrunken log2 fold change
RRIRNRPPRLPRPRPRPGNRPRP	-0.0775
RRIRFRPPRLPRPRPRPQCYPRP	0.04
RRIRTRPPRLPRPRPRPIYKPRP	-1.02
RRIRRRPPRLPRPRPRPQAQPRP	0.0393
RRIRRRPPRLPRPRPRPVQAPRP	0.464
RRIRTRPPRLPRPRPRPETAPRP	0.4
RRIRARPPRLPRPRPRPVPTPRP	0.57
RRIRMRPPRLPRPRPRPPPFPRP	1.15
RRIRARPPRLPRPRPRPKADPRP	0.597
RRIRFRPPRLPRPRPRPCFNPRP	-0.385
RRIRFRPPRLPRPRPRPYRPPRP	-1.76
RRIRQRPPRLPRPRPRPAAEPRP	0.19
RRIRKRPPRLPRPRPRPYVLPRP	-0.234
RRIRIRPPRLPRPRPRPRRFPRP	-0.00443
RRIRCRPPRLPRPRPRPDVFPRP	-0.151
RRIRWRPPRLPRPRPRPRVRPRP	0.563
RRIRWRPPRLPRPRPRPQNGPRP	0.00668
RRIRHRPPRLPRPRPRPMCFPRP	-0.574
RRIRFRPPRLPRPRPRPMYNPRP	-0.294
RRIRKRPPRLPRPRPRPVPWPRP	0.572
RRIRSRPPRLPRPRPRPINYPRP	-0.336
RRIRNRPPRLPRPRPRPWMDPRP	-0.165
RRIRSRPPRLPRPRPRPKELPRP	0.0175
RRIRCRPPRLPRPRPRPYSPPRP	-1.13
RRIRIRPPRLPRPRPRPMDVPRP	-0.361
